This note sets out measurements from patent US20090304651A1 (published 2009).

The target in assay [1] is T1, recombinant human IGF-II (Insulin-like Growth Factor II) (human, UniProt P01344 25-91, biotinylated (Biotinyl-IGF-II, GroPep) where immobilised in SPR, site not stated; not biotinylated in ITC and as SPR analyte).
T1 construct: also called IGF2; IGF-2
In words: SPR, steady-state KD relative to wild type. The protocol:
[…]. Values are the mean±S.E.M. of three separate experiments.
(§1) Kinetic analysis by Surface Plasmon Resonance (SPR) was conducted on a BIAcore 3000 biosensor (BIAcore, Uppsala, Sweden) at 25° C. in HBS-EP (10 mM HEPES, pH 7.4, 150 mM NaCl, 3 mM EDTA, 0.005% surfactant P20) at a flow rate of 40 μl/min. […] Kinetic experiments consisted of a two minute injection of analyte followed by a 100 s dissociation phase in running buffer, after which the binding surface was regenerated with a 2 minute injection of 2 M MgCl₂. A blank flow cell was used for in-line reference subtraction of changes due to differences in refractive index of running buffer versus sample and a buffer-only injection was used to subtract instrument noise and drift. Injections were performed in duplicate for each concentration and in a randomised order. Kinetic parameters were determined by global fitting of sensorgrams to a two-state (conformational change) binding model using BIAevaluation software version 4.0.1. In all cases the minor component made an insignificant contribution to the overall affinity and as such only the kinetic parameters of the major binding component were used. For each interaction the dissociation affinity constant (KD) was also calculated by fitting of the response of each concentration at equilibrium to a steady-state affinity model using BIAevaluation. In order to investigate the influence of ionic strength, kinetic experiments were conducted in HBS-EP running buffers containing the desired NaCl concentration. In each case, analyte samples were made up in the appropriate running buffer prior to injection.
Following purification, the binding of each mutant construct to IGF2 was assessed by SPR and compared to the wild type domain 11.
Background: In SPR one partner is held on a chip, and binding of the other changes the refractive index at the surface.

In assay [2] the target is T1, recombinant human IGF-II (Insulin-like …). Kind of assay: SPR, IGF-II immobilised, kinetic fit. The protocol: as §1
(§2) Following purification, the binding of each mutant construct to IGF2 was assessed by SPR and compared to the wild type domain 11. Sensorgrams were generated using biotinylated IGF2 immobilised to the cell surface and mutant domain 11 proteins as the free analyte (FIG. 4).

Assay [3] has the same target. Kind of assay: SPR, IGF-II immobilised, steady state. The method, then: as §1, §2
Assay [4] has the same target. Kind of assay: SPR (Biacore).
Assay [5] has the same target. In words: ITC, IGF-II titrated into domain 11. The protocol:
Calorimetric measurements were performed using a VP-ITC microcalorimeter (MicroCal). All solutions were thoroughly degassed before use by stirring under vacuum. […] The sample cell contained either wild type domain 11 (7 uM) or the E1544A mutant (8 μM), also in HBS-E buffer. To correct for the heat effects of dilution and mixing, reaction heats obtained from a control experiment, in which IGF2 was injected into HBS-E, were subtracted. Calorimetric data were analysed using MicroCal ORIGIN software (version 5.0) supplied with the instrument. Thermodynamic parameters were derived by fitting the binding isotherms to a single-site binding model. Values for dissociation affinity constants (KD) were determined from duplicate experiments.
In order to validate the SPR sensorgram data, ITC was used to assess the binding affinity between domain 11 and IGF-II. The affinity of the E1544A mutant was also assessed by ITC in order to confirm whether use of a second technique agreed as to the apparent increase in affinity (FIG. 6 and Table 6). Titrations were performed using 17×15 μl injections of 40 μM IGF-II (after an initial 7.51 injection) into the reaction cell containing wild type domain 11 or the E1544A mutant. […] The two fold differences may be simply accounted for by the fidelity of both techniques.

T1 sequence (P01344 25-91 limits assumed): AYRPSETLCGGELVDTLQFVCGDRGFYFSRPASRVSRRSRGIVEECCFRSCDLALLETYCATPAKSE

B1: IGF2R domain 11 G1619R (amino acids 1511-1650, C-terminal His6 tag, from Pichia pastoris) (receptor)
chain: NEHDDCQVTNPSTGHLFDLSSLSGRAGFTAAYSEKGLVYMSICGENENCPPGVGACFGQTRISVGKANKRLRYVDQVLQLVYKDGSPCPSKSGLSYKSVISFVCRPEARPTNRPMLISLDKQTCTLFFSWHTPLACEQATHHHHHH
notes: also called polymorphism G1619R
For B1, the “Relative Affinity” value in assay [1] is 0.9 fold (wild type = 1.00).

B2: IGF2R domain 11 T1570A (amino acids 1511-1650, C-terminal His6 tag, from Pichia pastoris) (receptor)
chain: NEHDDCQVTNPSTGHLFDLSSLSGRAGFTAAYSEKGLVYMSICGENENCPPGVGACFGQARISVGKANKRLRYVDQVLQLVYKDGSPCPSKSGLSYKSVISFVCRPEAGPTNRPMLISLDKQTCTLFFSWHTPLACEQATHHHHHH
In the case of B2, in assay [2], the Kd stood at 954 nM, the koff stood at 0.281 s⁻¹ and the kon came to 295000 M⁻¹ s⁻¹. For the same molecule, the Kd in assay [3] worked out at 930 nM. In addition, in assay [1], the “Relative Affinity” value was 0.11 fold (wild type = 1.00).

B3: IGF2R domain 11 S1543A (amino acids 1511-1650, C-terminal His6 tag, from Pichia pastoris) (receptor)
chain: NEHDDCQVTNPSTGHLFDLSSLSGRAGFTAAYAEKGLVYMSICGENENCPPGVGACFGQTRISVGKANKRLRYVDQVLQLVYKDGSPCPSKSGLSYKSVISFVCRPEAGPTNRPMLISLDKQTCTLFFSWHTPLACEQATHHHHHH
Consider B3, for which, in assay [2], the Kd turned out to be 260 nM, the koff was 0.096 s⁻¹ and the kon was 369000 M⁻¹ s⁻¹. In addition, the Kd in assay [3] worked out at 262 nM. In addition, in assay [1], the “Relative Affinity” value was 0.39 fold (wild type = 1.00).

B4: IGF2R domain 11 S1596A (amino acids 1511-1650, C-terminal His6 tag, from Pichia pastoris) (receptor)
chain: NEHDDCQVTNPSTGHLFDLSSLSGRAGFTAAYSEKGLVYMSICGENENCPPGVGACFGQTRISVGKANKRLRYVDQVLQLVYKDGAPCPSKSGLSYKSVISFVCRPEAGPTNRPMLISLDKQTCTLFFSWHTPLACEQATHHHHHH
As to B4, the Kd in assay [4] was found to be 170 nM; in assay [5], 324 nM; in assay [2] it was 179 nM; in assay [3], 170 nM. For the same molecule, the off-rate constant (koff) in assay [2] was found to be 0.079 s⁻¹. Also, the kon in assay [2] was 441000 M⁻¹ s⁻¹. Besides, the “Relative Affinity” value in assay [1] is 0.61 fold (wild type = 1.00).

B5: IGF2R domain 11 K1545A (amino acids 1511-1650, C-terminal His6 tag, from Pichia pastoris) (receptor)
chain: NEHDDCQVTNPSTGHLFDLSSLSGRAGFTAAYSEAGLVYMSICGENENCPPGVGACFGQTRISVGKANKRLRYVDQVLQLVYKDGSPCPSKSGLSYKSVISFVCRPEAGPTNRPMLISLDKQTCTLFFSWHTPLACEQATHHHHHH
As for B5, in assay [2], the Kd was found to be 287 nM, the koff was found to be 0.078 s⁻¹ and the kon amounted to 273000 M⁻¹ s⁻¹. Moreover, the Kd in assay [3] was found to be 289 nM. In addition, the “Relative Affinity” value in assay [1] was 0.36 fold (wild type = 1.00).

B6: IGF2R domain 11 Y1542A (amino acids 1511-1650, C-terminal His6 tag, from Pichia pastoris) (receptor)
chain: NEHDDCQVTNPSTGHLFDLSSLSGRAGFTAAASEKGLVYMSICGENENCPPGVGACFGQTRISVGKANKRLRYVDQVLQLVYKDGSPCPSKSGLSYKSVISFVCRPEAGPTNRPMLISLDKQTCTLFFSWHTPLACEQATHHHHHH
Turning to B6, in assay [2], the Kd turned out to be 639 nM, the koff was 0.169 s⁻¹ and the kon worked out at 265000 M⁻¹ s⁻¹. Besides, the Kd in assay [3] turned out to be 633 nM. Moreover, in assay [1], the “Relative Affinity” value is 0.16 fold (wild type = 1.00).

B7: IGF2R domain 11 Q1569A (amino acids 1511-1650, C-terminal His6 tag, from Pichia pastoris) (receptor)
chain: NEHDDCQVTNPSTGHLFDLSSLSGRAGFTAAYSEKGLVYMSICGENENCPPGVGACFGATRISVGKANKRLRYVDQVLQLVYKDGSPCPSKSGLSYKSVISFVCRPEAGPTNRPMLISLDKQTCTLFFSWHTPLACEQATHHHHHH
Take B7: the Kd in assay [4] was found to be 130 nM; in assay [5], 209 nM; in assay [2] it was 130 nM; in assay [3], 130 nM. For the same molecule, the koff in assay [2] was 0.069 s⁻¹. Further, the kon in assay [2] was found to be 529000 M⁻¹ s⁻¹. For the same molecule, in assay [1], the “Relative Affinity” value was 0.8 fold (wild type = 1.00).

One may read the Kd as the equilibrium constant for the complex coming apart. Broadly, the koff is the rate constant with which the complex falls apart. As usually defined, the kon is the rate constant with which the complex forms.
